Results from the domain aggregation screens of Martell et al. (2025).

Assay: soluble fraction after stress (log2 fold change); higher = more stays soluble; pooled small domains, quantitative proteomics
Conditions: stress: 75 degC
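Also: 20 min heating vs room temperature control held 20 min.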

Row | Sequence | soluble fraction (log2)
1 | HMSDIHARIAAALAALTSPEKIHDLVVDDDGKVSFTFHLTREDPATLVRDARKAVQAVDGVRDVKVNVVDP | 0.134
2 | HMSAEKDGEWLTLTEAAKHLQVSPHVIRRLIQTGALPAEQVMRGAPHQIRAADLDTDRVKTMIAR | 0.133
3 | HMTSVAGIERFLASGAIKGMGAATAKLIVEHFGADTLNMLDMYPERLTEIKGIGPKKATAIIEGYRELS | -0.897
4 | HMRPTVNETQIREVFRSILGREVDPEGLRHYLGQAAKGWSIDQIRADVNNSQEAHQRRAELARQAEELK | -0.0425
5 | HMSGRVPTADDIAVGMKVYVPRLGGTGTVVTEPVRDKVVIQVGSLRLHAEVAELLLPDEHGRIQVPR | -0.844
6 | HMSESKYKMIKNWIKSKILDGTLVPNQKIYSESELMEIFDVSRHTVRLAIGELVSEGYLFKRQGTGTFVTQ | -2.82
7 | HMLSAGTTEQRLAMLQYQWEKQSETYSALGPNNGVVTLGQIRNTMAKIAELAGFKDAAQFWMPVPMDYDV | -0.217
8 | HMERLSVSMGDMVVFVRDAVEAFRGLVKEKGITLTFESKVEHFYMNYDHDKVYKVVNNLLSNAVKFT | -0.145
9 | HMDTQITPNKAKEIALAHAGVTEAAANFKKIKLDNKNGKSIYEIEFIANKSRYEFIVDAKNGSIIKFEK | -0.378
10 | HMITPAGVPPALLPVFDQFTLPDGTLRRGAVAAALRALYGPDAPQSGKRYQMEYDRVMAWHSQYFTSLH | -0.759
11 | HMSSESIIIKKLIEEFIHNENKYSPLSDEKLSYLLKNKGFSVARRTVAKYRDELGILSTRERKIKI | -1.76
12 | HMTNLTPKQQQIYQFIRASTQANGYPPTLREIGQQVGVRSPSTVKYHLDNLRTLGLLHWDGGKTRSITLP | -0.77
13 | HMNLEQTIVLGKRLFNNALDTLGKKQRSIKNKQINKLLELLNFKNMNELYQSIGVGDKNPLLMAQMML | -0.775
14 | HMKIVQHQLQLPVHVAGKFKGMFYKSDFVMSEDYDDDGNMILAVRLPLVDWNKFLKRTDNELSQYIKVTP | -1.64
15 | HMEDEVYFVPSPASRFNPWIAALASRRVPYRVEYDGAERRIAVPAGYAEKAGEELAAYERINHAWPR | -0.371
16 | HMYDAEAINKFFDIENWDFGETFYFQELSAYIMNQLSPKLVTILIVPRQTTQAFGSLFEIKSEPDEIFAS | 0.172
17 | HMEEIQLILAKNLKSIREKEKLSLEKVSQLTGVSKTMIGQIERGDSSPTLTTIWKIANGLKVSFTSLINNP | -3.06
18 | HMDLEGLSNKELVTLRGQIQDDLNKWATEVGIIDPKNRPDDYNRALQSLEDAKRQRSAIDAKL | 0.0844
19 | HMGTSIMIIIVKPETKKERVNDLIHWIESQNLRTHLSTGDYSTIIGVIGDTSKLDSELIRGLDIVENVKRV | -2.18
20 | HMADNKDMQAAFMEALNGLKEYAKVNGNIVTKEDVNSYFKDMHLDDNKYSMITGYLMANGITIKG | 0.179
21 | HMDNQYGVYSDEKNNVEIHWKRIDHPSVAKDHLDIEAYQNGKRVDINNQQADHYRYLINQEMNE | 0.201
22 | HMSTLTGTQRAAVVLMQMSPPNAARVMAQFTDAEAEEIAAEIVRLRKVDPEVAEQIMKDFHEAALSS | -0.226
23 | HMIMNEYEELRDRYLIGQIWKIGDLIEAKGIEGKIIQRGTNYVTFNDNNGKVHKAWLHEIKYEQ | -0.433
24 | HMNELGSLIKRKREELGLSQEELARILGYKHKSSINKIELGLADVPRTKVPAFAKALGMTPVEFS | -0.12
25 | HMLHPLLWAVDEPTPVTVRTRPEYVPDVVRWLMQPESQREHDGVVDLRYTVTHRAAFRSRIYVLGTRVTIP | 0.114
26 | HMSSWEVLAEPIQTVMRRYGVPGAYEKLKEVTRGKSLTAEALHALIRSLDIPQADKERLLALTPAAWA | -1.34

Row | Sequence | soluble fraction (log2)
27 | HMSTVAETVYNEIRDDILYGELQPGVKLKLEALRERYSVGVNTLREVLNRLVASGFVFVEGQKGFRVV | 0.365
28 | HMRHDSEGYYRLIGVPPDADDAELKEAAKKRLMEAHPDHGGSEDEFVEVYRAYRTLTDPSARAEYDARP | 0.28
29 | HMTIKLFPNPSTDFIRVSELSAKENYKIYTILGSEIKRGSVSNNETIDIRNLNSGVYLLKFDNGTTKKIVK | -1
30 | HMDAPHPSVVQVYFESRDRSWTYYNDRFDLHEGDLVYVEGKLEGVRGRVVEVSYNFRIKLADYKRVIAVA | -3.29
31 | HMSGGNTSAFKGKLNYEYRGNDTIITGSTYPVKELIKKAGGRWDPGSSAWIIKGRHVSDNEIF | 0.054
32 | HMAEATATVTASEMVVRSGPSSSYSVLGSLEKGTVVTVLAASDGIAKISYKGNTGYARIVDMELNSA | -0.612
33 | HMASAEDDLTRRARKLLTTSSMLKTLQPDTGERLQWLPQVVRLLAEGVEAPRIVVLIRRAMESG | -1.26
34 | HMVADLSGVGDKDIIVDQFIYHEVLPKETIYSIVKSFNVTSEDLNKNNPFLRANGLRIGQVIRIPLKI | -1.27
35 | HMRITEGEIVEIQEGDNRALVGVGEKLEGIISLDEIRGADGKLLFNVGDKITVMVMGHYNERPK | 0.244
36 | HMTEEELLERLDAVITEYKGKPGALIPVLQLAQGIFGYLPEVALKHIARQLDKPYSEVAGVVSFYSFFTT | 0.291
37 | HMVDVEMLTTVSDHIEAKLLQGILENHGIPSYSVDEESGEYMRVYMGYSIFGEKIYVRASDLLAAQGYL | -2.23
38 | HMTDVHFIDVPVSEGHPWIGLTVKDLNLPPGTLLVFLNHPGEKSTVPNGDTVLREGDVLVLGATAYAG | -0.384
39 | HMKNSKIVIQKRHNHILELLKQNRTMDVTVLAERLGVTGATIRRDLKKLEQEGTIVRSFGKVSFVG | -2.18
40 | HMKSLDDVISKFRPTGSENKIDFRKRVISEIHAQGFFKIKGSVNHVAKALGVTRYTVYNYLDKLND | -3.65
41 | HMSLGTDVVPDFTGKGIKEAKTEFAAYSEGELYIIGEGEKVKEQFPLPGEKVNKNSDLILYV | 0.0388
42 | HMQKAEQIGSLLREKRKSMGLTQDELAQQVEVRRQTLADLELGKNVGSHLLIKVMEHLGVGFDLL | -0.738
43 | HMPASDPNEKQILRFLTEHQVITRKETQALLDVSQSTAGRVLKAMVDNGQIKQLGGSRNTRYELPM | -0.141
44 | HMQGEASDAQLKAIFAIARKLGITDDFEVHRKASRLAGVPEPEVLPSLKSLTYAQASAVIKALQEELE | 0.248
45 | HMGSQSYVAIVNERFKESDIVELGGSVGSRTGDIITLHFRNSSPNELKNITGIVYLQVANKVTPKL | -1.26
46 | HMVDIGQSIRVELIREGKDSHQAVGYLRDGSMVVVNHGRKLIGSTVEVEITSIVPSSAGKVIFAEYLE | -2.67
47 | HMNYHDTLSYLMDAFGGADNLQKLLGVGPSALSNYRRREHLPLNQARKLSNIAPEFGFNLDPYTLKISVID | -1.62
48 | HMDNITIYSSNGKIYVNAIGGEKIELFNITGQKVAEKVAVSGINVLDAVYDITLVKVGSKVVKVV | -2.36
49 | HMPNYVEMLRLHEAGFSLRQIAKLVSSGRNTVTRTVNIAQEKELSYEEIAQWSSEELENMFKPD | -2.25
50 | HMVSKIEAPLPGIILSVDVKEGDTVKAGDKLMVMEAMKMENAILAETNGVVKSIKVKIQDSVLQGDILAEI | -0.55
51 | HMHVVVIDKQGALSYQGKAITLLDLKNIVIDVPKETPFLIKADKDIHLQSFVEVLDLIKTAGFKKVSLQ | -2.86
52 | HMERPYNGKQMEYHEGGVEKKETLFVEGGLSRVIQWDESGQKRSEVNISPTGVRREQYWDSSGKAIAKPS | 0.14

Row | Sequence | soluble fraction (log2)
53 | HMAKRINVKLIMELSAGGLTQNEIASSRHFSKTSVNLVLKTARELNVSAADLREMSPEEAYRLFFPEK | -1.66
54 | HMGTGTYQVWSANGLGVRMRSGPGTGYRILAVYSVGTSVTVLQKGAYWSYIRVGSRTGYMMNQFLVSG | 0.609
55 | HMEQMSPYPNPSKGKIQFHNQEPMDIKVFNSLGQIVFEQRILSRAILDLSRLSPGQYIVQAGEQKNIWIK | -1.64
56 | HMPNSIKAPAYLHNIARIYDHVLIDVEKASSAYEKLIKKYPNHPLSINAKLYLENAFNRSDEELLNMIKEN | -0.892
57 | HMEFEKYKYHYIFDDVLGLRIVWDRGKEHFSYFVNEELAEKSRKSDKDALEVMFYLEHKRWPEEGELENY | -1.67
58 | HMERVNILEKATKDIPNVEVKAFEGLSVNFARENHAQVIVRGLRAVTDFEYELQMAQTNRVLAPDVDTVF | -0.0564
59 | HMLEPGQKVKSVVVDISGDLIYIDLGGKTEGVVELKEFYDEAGEYHVKPGDEIEVFFVSVQNGLKRFTT | -0.0603
60 | HMRQQAFWALVPEERDVLDETGAPLFRIGPTAWALVIEDRGEVFVVRDEDGRVGYLHEVDGVTR | -1.57
61 | HMASDYYTTTANLNLRSGAGTTYGSLIIIEKGDTVKLLENVNDHWVKIQYDDKIGYVAMSYLLPIE | -1.31
62 | HMNREDYIKAIFKIAEREGEASNQRIADSLGVSRASASEMVKKLIQEGFVVAEGRQLSLSAEGERIA | -0.185
63 | HMPINPKVKQIYDTLKDGGADVGSEKEFNDYFFAKGKDGYNNRKEVFNTLREGGADAGKSYEEFAGWLGL | 0.445
64 | HMIIDPQIRTLWTSQIIDILKSNPKRSIRSILELYPSNKESWVLIILQELIGEEKIIRDLDYLYFNK | -1.79
65 | HMTESSTYFEKIGTEISQFKSIPKNIDVIIIEKLIYSGIIKKVDNEENSRVYYILTRKGRYFWKRYVLS | 0.16
66 | HMEGLESVVPDLRGKSLKSAAIAAGLSGFALSPEGSGIVYKQSPAPGGRYLKGTLIAVWLRT | -1.95
67 | HMIYGNGVTDLKDLANGATIIIPADDSNETRALFLLQQEGLIKLPDDADAAKGVSTLDIVDGGGWVTSM | 0.0362
68 | HMGTTIAMSKLKQVLRWKEEGYSNRKIAQLVGLNKETVNNYISRANADSLSQKELLQLDDFVLDIRLRG | -1.76
69 | HMDREIVEAIVPLEAAGKRFDAALAEMFPEFSRSRLTEWIKAGDALLAGEIVKPKVSVRGGEAVSLSIRV | -0.765
70 | HMDIADKLTKREFEIFIAIAMNKSRFDIANELGLSAKTVSNGLTVIKRKLNAVPSQFSAIAAKHGYIG | -2.68
71 | HMKPDSEFTSQDLWQNDLAGTGSAAYRRDKMGALLGIGYGNAKRFLERLNSYGVTRSEFDEALAQLGE | -0.188
72 | HMKEDNPIVLINLQAKEGEWVFKGTGLPYVGKYHQHKNGEYMIGIGVLNLNHELKPDEIIIPNPNK | -0.362
73 | HMTYLIKFDENGRRSDTYVAEEKTQEQVTELLEKGFVLITEEDYQLLVGNVDGKEYIRNADGTYSEYT | 0.563
74 | HMDPTLFRLNILEGLGLEKKNLTSEEQEQLRFLYEHFSMKEILMTIDYIKKLNLEKSIVNLYRLMQHP | -0.823
75 | HMTREAILDTAEELLQRRGYNAFSYHHIAVQLGIRNAAIHYHFPAKEDLGIELVSRFRIRLAE | -0.28
76 | HMLPSWPGVSEFEVARLLRRGRARGSLTLDEVIDVVRDAELTSELIAGIRSSLRAEGIDFEET | -0.731
